From patent publication US20070213269

Tests used:
PBS1 (synthetic) = test: EMSA
PBS2 (synthetic) = test: EMSA
PBS1a (synthetic) = test: EMSA
KRAB-PBS2 (synthetic) = test: cell_activity; conditions: for activity (fold repression): with Tat
KRAB-PBS1a (synthetic) = test: cell_activity; conditions: with Tat
KRAB-PBS1 (synthetic) = test: cell_activity; conditions: with Tat
PBS3 (synthetic) = test: EMSA

Substance: AAATCTCTAGCAGTGGCG [HIV-1 PBS hairpin, PBS1 site]
- Kd (PBS1 (synthetic)): 0.79 nM

Substance: GCAGTGGCGCCCGAACAG [HIV-1 PBS hairpin, PBS2 site]
- Kd (PBS2 (synthetic)): 2.4 nM

Substance: GTGTGGAAAATCTCTAGCAGTGGCG [HIV-1 PBS hairpin, PBS1a site]
- Kd (PBS1a (synthetic)): 1.25 nM

Substance: HIV-1 LTR-luciferase reporter (LTR658-luc)
- activity (fold repression) (KRAB-PBS2 (synthetic); HeLa): 28
- activity (fold repression) (KRAB-PBS1a (synthetic); HeLa): 9.5
- activity (fold repression) (KRAB-PBS1 (synthetic); HeLa): 20

Substance: HIV-1 with wild-type B-subtype LTR
- activity (% inhibition of virus production) (KRAB-PBS2 (synthetic); transduced PBMCs, NL4-3 challenge): > 90

Substance: TGGCGCCCGAACAGGGAC [HIV-1 PBS hairpin, PBS3 site]
- Kd (PBS3 (synthetic)): 0.93 nM

Substance: chromosomally integrated HIV-1 LTR reporter (TZM-bl)
- activity (fold repression) (KRAB-PBS2 (synthetic); TZM-bl luciferase): 20
- activity (fold repression) (KRAB-PBS1a (synthetic); TZM-bl luciferase): 15
- activity (fold repression) (KRAB-PBS1 (synthetic); TZM-bl luciferase): 7
